Source: the supplement of paper PMC10567573

B1: CDC25B (parent)
chain: ELKTFRLKTRSWAGERSRRELCSR

Variants of: B1
Experiment: protein stability index of a GFP-peptide fusion (GPS, HEK-293T) (PSI 1-6); higher = more stable
Details: c terminus: a fixed tail appended
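Further: lentivirally expressed fusions sorted by FACS into six bins by GFP to DsRed ratio, PSI derived from sequencing read proportions per bin multiplied by bin number.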

Variant	protein stability index
ELKTFRRKTRSWAGERSRRELCSR [L7R]	4.57
ELKTFRSKTRSWAGERSRRELCSR [L7S]	3.91
ELKTFRTKTRSWAGERSRRELCSR [L7T]	4.08
ELKTFRVKTRSWAGERSRRELCSR [L7V]	3.33
ELKTFRWKTRSWAGERSRRELCSR [L7W]	2.99
ELKTFRYKTRSWAGERSRRELCSR [L7Y]	3.29
ELKTFRLATRSWAGERSRRELCSR [K8A]	2.88
ELKTFRLCTRSWAGERSRRELCSR [K8C]	2.73
ELKTFRLDTRSWAGERSRRELCSR [K8D]	3.41
ELKTFRLETRSWAGERSRRELCSR [K8E]	3.2
ELKTFRLFTRSWAGERSRRELCSR [K8F]	2.28
ELKTFRLGTRSWAGERSRRELCSR [K8G]	2.4
ELKTFRLHTRSWAGERSRRELCSR [K8H]	3.07
ELKTFRLITRSWAGERSRRELCSR [K8I]	1.92
ELKTFRLLTRSWAGERSRRELCSR [K8L]	3.2
ELKTFRLMTRSWAGERSRRELCSR [K8M]	2.8
ELKTFRLNTRSWAGERSRRELCSR [K8N]	2.99
ELKTFRLPTRSWAGERSRRELCSR [K8P]	2.77
ELKTFRLQTRSWAGERSRRELCSR [K8Q]	3.34
ELKTFRLRTRSWAGERSRRELCSR [K8R]	5.09
ELKTFRLSTRSWAGERSRRELCSR [K8S]	3.55
ELKTFRLTTRSWAGERSRRELCSR [K8T]	3.65
ELKTFRLVTRSWAGERSRRELCSR [K8V]	2.68
ELKTFRLWTRSWAGERSRRELCSR [K8W]	2.1

Variant	protein stability index
ELKTFRLYTRSWAGERSRRELCSR [K8Y]	2.71
ELKTFRLKARSWAGERSRRELCSR [T9A]	3.66
ELKTFRLKCRSWAGERSRRELCSR [T9C]	3.58
ELKTFRLKDRSWAGERSRRELCSR [T9D]	3.35
ELKTFRLKERSWAGERSRRELCSR [T9E]	3.69
ELKTFRLKFRSWAGERSRRELCSR [T9F]	2.18
ELKTFRLKGRSWAGERSRRELCSR [T9G]	4
ELKTFRLKHRSWAGERSRRELCSR [T9H]	3.29
ELKTFRLKIRSWAGERSRRELCSR [T9I]	1.99
ELKTFRLKKRSWAGERSRRELCSR [T9K]	3.84
ELKTFRLKLRSWAGERSRRELCSR [T9L]	2.09
ELKTFRLKMRSWAGERSRRELCSR [T9M]	2.3
ELKTFRLKNRSWAGERSRRELCSR [T9N]	3.66
ELKTFRLKPRSWAGERSRRELCSR [T9P]	3.14
ELKTFRLKQRSWAGERSRRELCSR [T9Q]	3.13
ELKTFRLKRRSWAGERSRRELCSR [T9R]	4.65
ELKTFRLKSRSWAGERSRRELCSR [T9S]	4.09
ELKTFRLKVRSWAGERSRRELCSR [T9V]	2.6
ELKTFRLKWRSWAGERSRRELCSR [T9W]	1.54
ELKTFRLKYRSWAGERSRRELCSR [T9Y]	3.16
ELKTFRLKTASWAGERSRRELCSR [R10A]	3.15
ELKTFRLKTCSWAGERSRRELCSR [R10C]	2.94
ELKTFRLKTDSWAGERSRRELCSR [R10D]	3.62
ELKTFRLKTESWAGERSRRELCSR [R10E]	2.66

Variant	protein stability index
ELKTFRLKTFSWAGERSRRELCSR [R10F]	2.54
ELKTFRLKTGSWAGERSRRELCSR [R10G]	2.44
ELKTFRLKTHSWAGERSRRELCSR [R10H]	3.04
ELKTFRLKTISWAGERSRRELCSR [R10I]	2.8
ELKTFRLKTKSWAGERSRRELCSR [R10K]	3.66
ELKTFRLKTLSWAGERSRRELCSR [R10L]	3.38
ELKTFRLKTMSWAGERSRRELCSR [R10M]	2.92
ELKTFRLKTNSWAGERSRRELCSR [R10N]	3.13
ELKTFRLKTPSWAGERSRRELCSR [R10P]	3.13
ELKTFRLKTQSWAGERSRRELCSR [R10Q]	3.1
ELKTFRLKTSSWAGERSRRELCSR [R10S]	3.5
ELKTFRLKTTSWAGERSRRELCSR [R10T]	2.37
ELKTFRLKTVSWAGERSRRELCSR [R10V]	2.45
ELKTFRLKTWSWAGERSRRELCSR [R10W]	2.41
ELKTFRLKTYSWAGERSRRELCSR [R10Y]	3.19
ELKTFRLKTRAWAGERSRRELCSR [S11A]	2.68
ELKTFRLKTRCWAGERSRRELCSR [S11C]	2.63
ELKTFRLKTRDWAGERSRRELCSR [S11D]	2.95
ELKTFRLKTREWAGERSRRELCSR [S11E]	3.11
ELKTFRLKTRFWAGERSRRELCSR [S11F]	2.58
ELKTFRLKTRGWAGERSRRELCSR [S11G]	2.94
ELKTFRLKTRHWAGERSRRELCSR [S11H]	1.95
ELKTFRLKTRIWAGERSRRELCSR [S11I]	2.71
ELKTFRLKTRKWAGERSRRELCSR [S11K]	2.64

Variant	protein stability index
ELKTFRLKTRLWAGERSRRELCSR [S11L]	2.61
ELKTFRLKTRMWAGERSRRELCSR [S11M]	2.42
ELKTFRLKTRNWAGERSRRELCSR [S11N]	3.2
ELKTFRLKTRPWAGERSRRELCSR [S11P]	2.59
ELKTFRLKTRQWAGERSRRELCSR [S11Q]	2.58
ELKTFRLKTRRWAGERSRRELCSR [S11R]	2.4
ELKTFRLKTRTWAGERSRRELCSR [S11T]	3.1
ELKTFRLKTRVWAGERSRRELCSR [S11V]	2.11
ELKTFRLKTRWWAGERSRRELCSR [S11W]	2.57
ELKTFRLKTRSAAGERSRRELCSR [W12A]	3.16
ELKTFRLKTRSCAGERSRRELCSR [W12C]	2.87
ELKTFRLKTRSDAGERSRRELCSR [W12D]	4.12
ELKTFRLKTRSEAGERSRRELCSR [W12E]	4.2
ELKTFRLKTRSFAGERSRRELCSR [W12F]	3.34
ELKTFRLKTRSGAGERSRRELCSR [W12G]	3.54
ELKTFRLKTRSHAGERSRRELCSR [W12H]	3.64
ELKTFRLKTRSIAGERSRRELCSR [W12I]	3.3
ELKTFRLKTRSKAGERSRRELCSR [W12K]	3.94
ELKTFRLKTRSLAGERSRRELCSR [W12L]	3.41
ELKTFRLKTRSMAGERSRRELCSR [W12M]	2.43
ELKTFRLKTRSNAGERSRRELCSR [W12N]	3.45
ELKTFRLKTRSPAGERSRRELCSR [W12P]	3.55
ELKTFRLKTRSQAGERSRRELCSR [W12Q]	3.49
ELKTFRLKTRSRAGERSRRELCSR [W12R]	4.08

Variant	protein stability index
ELKTFRLKTRSSAGERSRRELCSR [W12S]	3.54
ELKTFRLKTRSTAGERSRRELCSR [W12T]	3.38
ELKTFRLKTRSVAGERSRRELCSR [W12V]	3.45
ELKTFRLKTRSYAGERSRRELCSR [W12Y]	3.66
ELKTFRLKTRSWCGERSRRELCSR [A13C]	2.94
ELKTFRLKTRSWDGERSRRELCSR [A13D]	3.98
ELKTFRLKTRSWEGERSRRELCSR [A13E]	3.23
ELKTFRLKTRSWFGERSRRELCSR [A13F]	1.88
ELKTFRLKTRSWGGERSRRELCSR [A13G]	3.41
ELKTFRLKTRSWHGERSRRELCSR [A13H]	3.81
ELKTFRLKTRSWIGERSRRELCSR [A13I]	2.22
ELKTFRLKTRSWKGERSRRELCSR [A13K]	3.31
ELKTFRLKTRSWLGERSRRELCSR [A13L]	2.62
ELKTFRLKTRSWMGERSRRELCSR [A13M]	2.92
ELKTFRLKTRSWNGERSRRELCSR [A13N]	3.81
ELKTFRLKTRSWPGERSRRELCSR [A13P]	3.84
ELKTFRLKTRSWQGERSRRELCSR [A13Q]	3.01
ELKTFRLKTRSWRGERSRRELCSR [A13R]	3.49
ELKTFRLKTRSWSGERSRRELCSR [A13S]	2.85
ELKTFRLKTRSWTGERSRRELCSR [A13T]	3.1
ELKTFRLKTRSWVGERSRRELCSR [A13V]	2.44
ELKTFRLKTRSWWGERSRRELCSR [A13W]	2.2
ELKTFRLKTRSWYGERSRRELCSR [A13Y]	2.22
ELKTFRLKTRSWAAERSRRELCSR [G14A]	2.42

Variant	protein stability index
ELKTFRLKTRSWACERSRRELCSR [G14C]	2.5
ELKTFRLKTRSWADERSRRELCSR [G14D]	3.62
ELKTFRLKTRSWAEERSRRELCSR [G14E]	3.16
ELKTFRLKTRSWAFERSRRELCSR [G14F]	3.15
ELKTFRLKTRSWAHERSRRELCSR [G14H]	2.65
ELKTFRLKTRSWAIERSRRELCSR [G14I]	2.67
ELKTFRLKTRSWAKERSRRELCSR [G14K]	2.7
ELKTFRLKTRSWALERSRRELCSR [G14L]	2.61
ELKTFRLKTRSWAMERSRRELCSR [G14M]	2.66
ELKTFRLKTRSWANERSRRELCSR [G14N]	2.48
ELKTFRLKTRSWAPERSRRELCSR [G14P]	2.25
ELKTFRLKTRSWAQERSRRELCSR [G14Q]	2.58
ELKTFRLKTRSWARERSRRELCSR [G14R]	2.73
ELKTFRLKTRSWASERSRRELCSR [G14S]	2.39
ELKTFRLKTRSWATERSRRELCSR [G14T]	3.53
ELKTFRLKTRSWAVERSRRELCSR [G14V]	2.19
ELKTFRLKTRSWAWERSRRELCSR [G14W]	3.23
ELKTFRLKTRSWAYERSRRELCSR [G14Y]	2.05
ELKTFRLKTRSWAGARSRRELCSR [E15A]	3.04
ELKTFRLKTRSWAGCRSRRELCSR [E15C]	2.44
ELKTFRLKTRSWAGDRSRRELCSR [E15D]	3.36
ELKTFRLKTRSWAGFRSRRELCSR [E15F]	2.58
ELKTFRLKTRSWAGGRSRRELCSR [E15G]	2.68
ELKTFRLKTRSWAGHRSRRELCSR [E15H]	3.02

Variant	protein stability index
ELKTFRLKTRSWAGIRSRRELCSR [E15I]	2.75
ELKTFRLKTRSWAGKRSRRELCSR [E15K]	3.3
ELKTFRLKTRSWAGLRSRRELCSR [E15L]	2.78
ELKTFRLKTRSWAGMRSRRELCSR [E15M]	2.67
ELKTFRLKTRSWAGNRSRRELCSR [E15N]	2.66
ELKTFRLKTRSWAGPRSRRELCSR [E15P]	3.2
ELKTFRLKTRSWAGQRSRRELCSR [E15Q]	3.06
ELKTFRLKTRSWAGRRSRRELCSR [E15R]	3.06
ELKTFRLKTRSWAGSRSRRELCSR [E15S]	2.96
ELKTFRLKTRSWAGTRSRRELCSR [E15T]	2.98
ELKTFRLKTRSWAGVRSRRELCSR [E15V]	2.51
ELKTFRLKTRSWAGWRSRRELCSR [E15W]	2.4
ELKTFRLKTRSWAGYRSRRELCSR [E15Y]	2.46
ELKTFRLKTRSWAGEASRRELCSR [R16A]	3.64
ELKTFRLKTRSWAGECSRRELCSR [R16C]	2.97
ELKTFRLKTRSWAGEDSRRELCSR [R16D]	3.83
ELKTFRLKTRSWAGEESRRELCSR [R16E]	3.64
ELKTFRLKTRSWAGEFSRRELCSR [R16F]	2.6
ELKTFRLKTRSWAGEGSRRELCSR [R16G]	3.74
ELKTFRLKTRSWAGEHSRRELCSR [R16H]	3.46
ELKTFRLKTRSWAGEISRRELCSR [R16I]	2.53
ELKTFRLKTRSWAGEKSRRELCSR [R16K]	2.81
ELKTFRLKTRSWAGELSRRELCSR [R16L]	2.91
ELKTFRLKTRSWAGEMSRRELCSR [R16M]	2.97

Variant	protein stability index
ELKTFRLKTRSWAGENSRRELCSR [R16N]	3.34
ELKTFRLKTRSWAGEPSRRELCSR [R16P]	3.67
ELKTFRLKTRSWAGEQSRRELCSR [R16Q]	3.62
ELKTFRLKTRSWAGESSRRELCSR [R16S]	3.9
ELKTFRLKTRSWAGETSRRELCSR [R16T]	3.87
ELKTFRLKTRSWAGEVSRRELCSR [R16V]	1.93
ELKTFRLKTRSWAGEWSRRELCSR [R16W]	2.55
ELKTFRLKTRSWAGEYSRRELCSR [R16Y]	3.61
ELKTFRLKTRSWAGERARRELCSR [S17A]	3.4
ELKTFRLKTRSWAGERCRRELCSR [S17C]	2.69
ELKTFRLKTRSWAGERDRRELCSR [S17D]	3.46
ELKTFRLKTRSWAGERERRELCSR [S17E]	4.03
ELKTFRLKTRSWAGERFRRELCSR [S17F]	2.24
ELKTFRLKTRSWAGERGRRELCSR [S17G]	2.7
ELKTFRLKTRSWAGERHRRELCSR [S17H]	3.21
ELKTFRLKTRSWAGERIRRELCSR [S17I]	2.32
ELKTFRLKTRSWAGERKRRELCSR [S17K]	2.77
ELKTFRLKTRSWAGERLRRELCSR [S17L]	2.87
ELKTFRLKTRSWAGERMRRELCSR [S17M]	2.52
ELKTFRLKTRSWAGERNRRELCSR [S17N]	2.93
